Laboratory results from the RNAGym collection of RNA variant scans (doi:10.7554/elife.80360).

B1: CPEB3 Ribozyme (parent)
chain: GGGGGCCACAGCAGAAGCGUUCACGUCGCGGCCCCUGUCAGAUUCUGGUGAAUCUGCGAAUUCUGCUGU

Variants of: B1
Assay: self-cleavage, relative activity (ratio to wild type); higher = more cleavage; co-transcriptional

In order of rising self-cleavage:
1. A59G A60C  0.238
2. C57G U62C  0.288
3. U55G C57A  0.317
4. C57U U62G  0.327
5. U55A C57G  0.33
6. C57U C63U  0.34
7. U55A C57A  0.34
8. A59C G65U  0.342
9. U53C U61C  0.342
10. A60C U61C  0.355
11. A59C U61G  0.359
12. C54A A59C  0.365
13. U55A C57U  0.369
14. C57U A59C  0.376
15. C57G U69A  0.381
16. C57U U64A  0.392
17. A60C U62A  0.396
18. A60C U62C  0.398
19. U53A U55G  0.411
20. C57U C66U  0.42
21. U53C G65U  0.429
22. U53A U55C  0.43
23. C54A G56C  0.431
24. C57G U62G  0.448
25. A60C G68A  0.454
26. G56C G65A  0.459
27. C57G U69G  0.473
28. A59C U61A  0.483
29. A59C G65A  0.496
30. C54A A59U  0.497
31. U55G U61A  0.497
32. C57A U69C  0.499
33. A52G A60U  0.506
34. U53A C66A  0.509
35. C54A U62A  0.546
36. C57U U64C  0.556
37. A52U U55G  0.56
38. U55C U64A  0.567
39. G56C G65C  0.57
40. U53G A59U  0.576
41. U53C U61A  0.577
42. U53A U61G  0.581
43. U55C G56C  0.583
44. U53G C66G  0.647
45. A52U C66G  0.695
46. A52U U55A  0.7
47. G58C G65C  0.703
48. A52G U53G  0.72
49. U55G G56C  0.729
50. G58A C63A  0.748
51. A52U U62C  0.765
52. A59C  0.788
53. C54U G65U  0.809
54. U55G G56U  0.817
55. U53G G58A  0.818
56. U55G U67G  0.826
57. A59G U64G  0.835
58. G58C U61C  0.844
59. A52U G56U  0.848
60. A59U  0.854
61. C54A A59G  0.858
62. C54A G58A  0.883
63. A52G U53C  0.892
64. C54U A60G  0.903
65. A52U G56A  0.909
66. U55A U67A  0.921
67. U53G C66U  0.929
68. U55G G58U  0.946
69. G58U G65U  0.948
70. A52U C63U  0.954
71. G58A U64G  0.955
72. G58U G65A  0.961
73. U55A U67G  0.963
74. U53A U67C  0.975
75. A52U C54U  0.976
76. U53G U69A  0.982
77. U55C G56A  0.996
78. A59G  0.997
79. A59G C63U  1.01
80. C54U G58U  1.02
81. G56A U69A  1.03
82. U53A U69C  1.06
83. G58C U69C  1.07
